{"source": "patent US20240025993A1", "about": "“CD19 BINDING MOLECULES AND USES THEREOF” (NOVARTIS AG, priority 2020, published 2024)", "molecules": {"B1": {"name": "CD3hi TSP1C: TBM corresponding to CD3hi TSP1 but with a lysozyme binding arm in place of the CD19 binding arm; control antibody (antibody)", "heavy": "QVQLQQSGPGLVKPSQTLSLTCAISGDSVSSNSAAWSWIRQSPGRGLEWLGRIYYRSKWYNDYAVSVKSRITINPDTSKNQFSLQLNSVTPEDTAVYYCARLDHRYHEDTVYPGMDVWGQGTLVTVSSASTKGPSVFPLAPSSKSTSGGTAALGCLVKDYFPEPVTVSWNSGALTSGVHTFPAVLQSSGLYSLSSVVTVPSSSLGTQTYICNVNHKPSNTKVDKRVEPKSCGGGGSGGGGSEVQLVESGGGLVQPGGSLKLSCAASGFTFNTYAMNWVRQASGKGLEWVGRIRSKYNNYATYYADSVKDRFTISRDDSKSTLYLQMNSLKTEDTAVYYCVRHGNFGNSYVSWFAYWGQGTLVTVSSGGGGSGGGGSGGGGSGGGGSQAVVTQEPSLTVSPGGTVTLTCRSSTGAVTTSNYANWVQQKPGQAPRGLIGGTNKRAPWTPARFSGSLLGDKAALTLSGAQPEDEAEYFCALWYSNLWVFGGGTKLTVLGGGGSDKTHTCPPCPAPELLGGPSVFLFPPKPKDTLMISRTPEVTCVVVAVSHEDPEVKFNWYVDGVEVHNAKTKPREEQYASTYRVVSVLTVLHQDWLNGKEYKCKVSNKALAAPIEKTISKAKGQPREPQVCTLPPSREEMTKNQVSLSCAVKGFYPSDIAVEWESNGQPENNYKTTPPVLDSDGSFFLVSKLTVDKSRWQQGNVFSCSVMHEALHNHYTQKSLSLSPGK", "light": "DIELTQPPSVSVAPGQTARISCSGDNLPAYTVTWYQQKPGQAPVLVIYDDSDRPSGIPERFSGSNSGNTATLTISGTQAEDEADYYCASWDPSSGVVFGGGTKLTVLGQPKAAPSVTLFPPSSEELQANKATLVCLISDFYPGAVTVAWKADSSPVKAGVETTTPSKQSNNKYAASSYLSLTPEQWKSHRSYSCQVTHEGSTVEKTVAPTECS", "chain": "SQQIYGVVYGNVTFHVPSNVPLKEVLWKKQKDKVAELENSEFRAFSSFKNRVYLDTVSGSLTIYNLTSSDEDEYEMESPNITDTMKFFLYVLESGGGGSDKTHTCPPCPAPELLGGPSVFLFPPKPKDTLMISRTPEVTCVVVAVSHEDPEVKFNWYVDGVEVHNAKTKPREEQYASTYRVVSVLTVLHQDWLNGKEYKCKVSNKALAAPIEKTISKAKGQPREPQVYTLPPCREEMTKNQVSLWCLVKGFYPSDIAVEWESNGQPENNYKTTPPVLDSDGSFFLYSKLTVDKSRWQQGNVFSCSVMHEALHNHYTQKSLSLSPGK"}}, "tested_on": "T cells co-cultured with OCI-LY-19, Karpas422 or Toledo target cells", "assay": "TBM and BBM mediated T cell proliferation (Example 20)", "assay_type": "cell-based, human", "conditions": "OCI-LY-19, Karpas422, Toledo co-culture; E:T 1:3, 96 hrs, 2.5 nM-0.0006 nM; H variants", "procedure": "Briefly, OCI-LY-19, Karpas422, and Toledo target cells stably expressing firefly luciferase were plated in a 96 well plate in T Cell Media (TCM) (RPMI-1640, ThermoFisher Scientific, Cat #11875-085), 10% FBS (Seradigm, Cat #1500-500), 1% L-Glutamine (Thermo Fisher Scientific, Cat #25830-081), 1% Non Essential Amino Acids (Thermo Fisher Scientific, Cat #11140-050),1% Pen/Strep (Thermo Fisher Scientific, Cat #15070063), 1% HEPES (Thermo Fisher Scientific, Cat #15630080), Sodium Pyruvate (Thermo Fisher Scientific, Cat #11360-070), 0.1% Beta-mercaptoethanol (Thermo Fisher Scientific, Cat #21985-023)]. PBMCs previously isolated and cryopreserved from 2 Leukopak donors were thawed and Pan T cells were isolated (as described earlier). Isolated T cells were labelled with 5 μM Cell Trace Violet (CTV) (Thermo Fisher Scientific, Cat #C34557) following the manufacturer's protocol and were co-cultured with target cells at an E:T ratio of 1:3. A dilution series of CD3med TSP1, CD3hi TSP1, CD3hi BSP1, CD3hi TSP1C, and blinatumomab ranging from 2.5 nM-0.0006 nM was added to cells and the plates were incubated in a 5% CO2, 37° C. incubator for 96 hrs. […]"}
{"molecule": "B1", "values": [{"measurement": "T cell proliferation (% proliferated CD3+ T cells)", "result": "did not induce any T cell proliferation"}]}
